Experimental findings from paper PMC6193675 are described below.

The target of this experiment is VRC01. Put plainly: FACS; competition with YU2 gp120dsm for 3 nM VRC01. In general terms: Flow cytometry measures light scatter and fluorescence of single cells or particles in a stream.

As for Bal gp120, the Ki (usually the dissociation constant of the complex between target and ligand, obtained from inhibition or displacement) came out at 5 nM.
